Consider 16 molecules from article PMC8464063, “The bacterial iron sensor IdeR recognizes its DNA targets by indirect readout”.

Data set [1] has as its target Saccharopolyspora erythraea IdeR Q43A variant (Saccharopolyspora erythraea). Briefly: crystal structure; IdeR (WT, Q43A or P39G) with 1 mM CoCl2 or Fe(NH4)2(SO4)2 and 150 uM 30-bp double-stranded DNA (consensus or C10S1); space group C2, two IdeR dimers and one DNA duplex in the asymmetric unit.
For data set [2], the target named is Saccharopolyspora erythraea iron-dependent regulator IdeR, wild type (Saccharopolyspora erythraea). Kind of data set: crystal structure; Co2+-activated IdeR WT without DNA; 12 mg/ml protein with 1 mM CoCl2 and 0.3 mg/ml trypsin before crystallisation; 25% PEG 1500, 20°C; space group P1, one IdeR dimer in the asymmetric unit.
The target is the same in data set [3]. Kind of data set: crystal structure; IdeR (WT, Q43A or P39G) with 1 mM CoCl2 or Fe(NH4)2(SO4)2 and 150 uM 30-bp double-stranded DNA (consensus or C10S1); space group C2, two IdeR dimers and one DNA duplex in the asymmetric unit.
In data set [4] the target is Saccharopolyspora erythraea IdeR P39G variant (Saccharopolyspora erythraea). Described as above.
In data set [5] the target is T1, IdeR WT (Saccharopolyspora erythraea DSM 40517, UniProt A0ABF7PL34 1-231). Kind of data set: EMSA; 30 uM Co2+; up to 22.5 uM dimer; EMSA: 15 mM Tris-acetate pH 7.3, 4 mM K-acetate, 10% glycerol, 17 ng/ul poly(dI-dC), 30 nM DNA, 30 uM Co2+, IdeR 15 nM-2.25 uM dimer, 20 min room temperature; 4% native gel at 4 C. The conditions noted are these: protein: recombinant, tags: N-terminal His6 removed by TEV, Gly-His remains before Met1, chain copies: 4, blunt.

Data set [6] deals with T1, IdeR WT. Kind of data set: EMSA; 30 uM Co2+; EMSA: 15 mM Tris-acetate pH 7.3, 4 mM K-acetate, 10% glycerol, 17 ng/ul poly(dI-dC), 30 nM DNA, 30 uM Co2+, IdeR 15 nM-2.25 uM dimer, 20 min room temperature; 4% native gel at 4 C. The following applies: protein: recombinant, tags: N-terminal His6 removed by TEV, Gly-His remains before Met1, chain copies: 4, blunt. A general note: A gel shift assay detects complexes by their altered migration in electrophoresis.

Data set [7] addresses T2, IdeR P39G (Saccharopolyspora erythraea DSM 40517, UniProt A0ABF7PL34 1-231, P39G). Described as above. The conditions noted are these: protein: recombinant; tags: N-terminal His6 removed by TEV; Gly-His remains before Met1; chain copies: 4; label: 5' Cy5 or 5' FAM on strand 1; blunt.
The target of the next data set is IdeR Q43A (Saccharopolyspora erythraea DSM 40517, UniProt A0ABF7PL34 1-231, Q43A). The description is as above. The following applies: protein: recombinant; tags: N-terminal His6 removed by TEV; Gly-His remains before Met1; chain copies: 4; label: 5' Cy5 or 5' FAM on strand 1; blunt.
For data set [8], the target named is T1, IdeR WT. Kind of data set: EMSA; 30 uM Co2+; one dimer bound; EMSA: 15 mM Tris-acetate pH 7.3, 4 mM K-acetate, 10% glycerol, 17 ng/ul poly(dI-dC), 30 nM DNA, 30 uM Co2+, IdeR 15 nM-2.25 uM dimer, 20 min room temperature; 4% native gel at 4 C. The following applies: protein: recombinant; tags: N-terminal His6 removed by TEV; Gly-His remains before Met1; chain copies: 4; label: 5' Cy5 on strand 1; blunt.

In data set [9] the target is T2, IdeR P39G. Kind of data set: X-ray crystallography; Co2+; two dimers per duplex; EMSA: 15 mM Tris-acetate pH 7.3, 4 mM K-acetate, 10% glycerol, 17 ng/ul poly(dI-dC), 30 nM DNA, 30 uM Co2+, IdeR 15 nM-2.25 uM dimer, 20 min room temperature; 4% native gel at 4 C. The conditions noted are these: protein: recombinant; tags: N-terminal His6 removed by TEV; Gly-His remains before Met1; chain copies: 4; blunt.

Data set [10] concerns the target T1, IdeR WT. Kind of data set: X-ray crystallography; Fe2+; two dimers per duplex; EMSA: 15 mM Tris-acetate pH 7.3, 4 mM K-acetate, 10% glycerol, 17 ng/ul poly(dI-dC), 30 nM DNA, 30 uM Co2+, IdeR 15 nM-2.25 uM dimer, 20 min room temperature; 4% native gel at 4 C. The following applies: protein: recombinant; tags: N-terminal His6 removed by TEV; Gly-His remains before Met1; chain copies: 4; blunt.

By stoichiometry N is commonly meant a count of units in the complex or per binding partner. “Saccharopolyspora erythraea IdeR Q43A variant (natural protein)” returned a stoichiometry N in data set [1] of 2.
For “Saccharopolyspora erythraea iron-dependent regulator IdeR, wild type (natural protein)”, the stoichiometry N in [2] and in data set [3] was 2 each time.
Molecule “Saccharopolyspora erythraea IdeR P39G variant (natural protein)” registered a stoichiometry N in data set [4] of 2.

B1: Consensus_T3-G3 (dsDNA)
DNA 1: CGTACTTCGGTTCGGCGAACCGAAGTACG
DNA 2: CGTACTTCGGTTCGCCGAACCGAAGTACG
As to B1, in the data set with IdeR WT [5] (label: 5' Cy5 on strand 1), the binding result is on record as “no binding”.

B2: Consensus_A4A5-S4S5 (dsDNA)
DNA 1: CGTACGCAGGCGAGGCTCGCCTGCGTACG
DNA 2: CGTACGCAGGCGAGCCTCGCCTGCGTACG
One may read the Kd as a measure of binding affinity in units of concentration. For the molecule B2, the Kd with IdeR WT [6] (label: 5' Cy5 on strand 1) was ~128 nM.

B3: Consensus_Full (dsDNA)
DNA 1: CGTACTTAGGTTAGGCTAACCTAAGTACG
DNA 2: CGTACTTAGGTTAGCCTAACCTAAGTACG
With B3, the Kd with IdeR P39G [7] is ~264 nM; with IdeR WT [6] (label: 5' Cy5 or 5' FAM on strand 1) it was ~45 nM; with IdeR Q43A, ~65 nM.

B4: C23S1 (dsDNA)
DNA 1: AGTCATAAAGTTAGGTTCGCCTCACTACT
DNA 2: AGTAGTGAGGCGAACCTAACTTTATGACT
As to B4, the Kd with IdeR WT [8] was ~102 nM.

B5: Cons_long (crystal) (dsDNA)
DNA 1: CGTACTTAGGTTAGGCTAACCTAAGTCACG
DNA 2: CGTGACTTAGGTTAGCCTAACCTAAGTACG
For B5, the binding result in the data set with IdeR P39G [9] and in the data set with IdeR WT [10] was “binds” in each case.

B6: Consensus_C1C2-T1T2 (dsDNA)
DNA 1: CGTACTTAAATTAAATTAATTTAAGTACG
DNA 2: CGTACTTAAATTAATTTAATTTAAGTACG
On to B6, for which the binding result with IdeR WT [5] (label: 5' Cy5 on strand 1) is listed as “no binding”.

B7: C10S2 (dsDNA)
DNA 1: GATGCTTAGGTTAGCCTACCCGACGCTGA
DNA 2: TCAGCGTCGGGTAGGCTAACCTAAGCATC
For B7, the Kd with IdeR WT [6] (label: 5' Cy5 on strand 1) was ~94 nM.

B8: Consensus_C1-T1 (dsDNA)
DNA 1: CGTACTTAGATTAGACTAATCTAAGTACG
DNA 2: CGTACTTAGATTAGTCTAATCTAAGTACG
With B8, the Kd in the data set with IdeR WT [6] (label: 5' Cy5 on strand 1) was ~70 nM.

B9: Minimal_CNTNN (dsDNA)
DNA 1: CGTACGCACGCGATGCTCGCATCCGTACG
DNA 2: CGTACGGATGCGAGCATCGCGTGCGTACG
Take B9: in the data set with IdeR WT [5] (label: 5' Cy5 on strand 1), the binding result is reported as “no binding”.

B10: Half site (dsDNA)
DNA 1: CGTACCCGGTTTAGGGCCACCTAAGTACG
DNA 2: CGTACTTAGGTGGCCCTAAACCGGGTACG
Take B10: in the data set with IdeR WT [8], the Kd is ~78 nM.

B11: Minimal_NCTNN (dsDNA)
DNA 1: CGTACGCAGACGAGACTCGTCTGCGCTACG
DNA 2: CGTAGCGCAGACGAGTCTCGTCTGCGTACG
Turning to B11, the binding result in the data set with IdeR WT [5] (label: 5' FAM on strand 1) is given as “no binding”.

B12: Consensus_C2-T2 (dsDNA)
DNA 1: CGTACTTAAGTTAAGTTAACTTAAGTCACG
DNA 2: CGTGACTTAAGTTAACTTAACTTAAGTACG
As for B12, the Kd with IdeR WT [6] (label: 5' FAM on strand 1) is ~105 nM.

B13: C10S1 (dsDNA)
DNA 1: CGTACTTTGGTAAAGCTAACCTAAGTCACC
DNA 2: GGTGACTTAGGTTAGCTTTACCAAAGTACG
For the molecule B13, the Kd in the data set with IdeR WT [6] (label: 5' FAM on strand 1) was ~116 nM.
